Measurements as given in the supplement of paper PMC6757056.
± gives the standard deviation of the averaged measurements.

B1: library; a variant is named by its letters at N, in order (parent)
chain: GCUGUCACCGGUGUAUUACCCUAGUGGUCGACCGGUCUGAUGAGUCUNNNNNNAGACGAAACAGC

Experiments:
hypoxanthine [1] = variants of: B1; experiment: FACS-Seq fitted mean relative fluorescence mCherry/BFP without ligand (log10 relative fluorescence); ligand: hypoxanthine (xanthine aptamer); higher = higher reporter protein expression; details: HEK293T, ligand present: no
Method in brief: (§1)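 An mCherry reporter containing the ribozyme switch and an EF1α-BFP marker were introduced by lentivirus into HEK293T libraries. Cells were enriched, incubated 48 h with or without ligand, sorted into 6 bins by mCherry/BFP, and bin genomic DNA was PCR-amplified, barcoded and sequenced on MiSeq. Fluorescence represents the normalized fitted normal mean of the bin counts. Fitting was done on log10(mCherry/BFP), scaling to five spiked-in control ribozymes.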

hypoxanthine [2] = variants of: B1; experiment: normalized RNA/DNA level with ligand (relative to sTRSVctl = 100) (log10 (% of sTRSVctl)); ligand: hypoxanthine (xanthine aptamer); higher = less ribozyme self-cleavage, higher mRNA level; details: ligand concentration (+) RNA-Seq: 5 mM, HEK293T, reporter: mCherry (pCS4076), ligand present: yes
Protocol: (§2)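 Hammerhead (sTRSV) ribozyme switch libraries with a ligand aptamer grafted on stem I and a randomized N4-6 loop II, cloned into the 3' UTR of mCherry and transiently transfected into HEK293T cells; RNA-Seq 72 h post transfection with ligand added 1 h before transfection; RNA read count / plasmid DNA read count normalized to the non-cleaving sTRSVctl (x100), log10; sequences with >100 DNA reads. FACS-Seq: lentiviral library sorted into 6 bins after 48 h ligand, log-normal fit mean of mCherry/BFP scaled to controls. Printed sequences are partial switch sequences.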

hypoxanthine [3] = variants of: B1; experiment: normalized RNA/DNA level without ligand (relative to sTRSVctl = 100) (log10 (% of sTRSVctl)); ligand: hypoxanthine (xanthine aptamer); higher = less ribozyme self-cleavage, higher mRNA level; details: HEK293T, reporter: mCherry (pCS4076), ligand present: no
Protocol: as §2

hypoxanthine [4] = variants of: B1; experiment: FACS-Seq fitted mean relative fluorescence mCherry/BFP with ligand (log10 relative fluorescence); ligand: hypoxanthine (xanthine aptamer); ligand concentration (+) FACS-Seq: 5 mM; higher = higher reporter protein expression; details: HEK293T, ligand present: yes
Method in brief: as §1

Variant	FACS-Seq fitted mean (log10) (hypoxanthine [1])	normalized RNA/DNA level with ligand (log10) (hypoxanthine [2])	normalized RNA/DNA level without ligand (log10) (hypoxanthine [3])	FACS-Seq fitted mean (log10) (hypoxanthine [4])
ACCCUG	0.60276 ± 0.00041	1.875 ± 0.0043	1.411 ± 0.0069	0.786 ± 0.12
ACCAAU	0.003 ± 0.21	1.9 ± 0.091	1.74 ± 0.026	0.157 ± 0.038
ACCAAA	0.2 ± 0.028	1.938 ± 0.011	1.8 ± 0.018	0.487 ± 0.046
ACCAAC	0.0939 ± 0.026	1.93 ± 0.025	1.883 ± 0.0074	0.317 ± 0.049
UCAUUU	0.631 ± 0.012	1.96 ± 0.052	1.91 ± 0.031	0.769 ± 0.024
GCCAAG	0.432 ± 0.0083	1.829 ± 0.011	1.4 ± 0.051	0.713 ± 0.047
GCCAAA	0.458 ± 0.073	1.95 ± 0.042	1.813 ± 0.017	0.612 ± 0.1
ACAUUC	0.36 ± 0.034	1.979 ± 0.0095	1.92 ± 0.062	0.421 ± 0.02
GCAUGC	-0.393 ± 0.035	1.926 ± 0.01	1.74 ± 0.14	-0.314 ± 0.05
GCAUGG	0.196 ± 0.083	1.83 ± 0.052	1.33 ± 0.063	0.701 ± 0.049
UCCUAC	0.76 ± 0.022	2.01 ± 0.096	1.88 ± 0.076	0.751 ± 0.058
UCAUGA	0.457 ± 0.055	1.885 ± 0.014	1.5 ± 0.032	0.53 ± 0.061
UCAUCA	0.87 ± 0.1	1.99 ± 0.031	1.98 ± 0.044	0.763 ± 0.052
GCAGCA	0.363 ± 0.034	1.983 ± 0.0069	1.827 ± 0.016	0.663 ± 0.015
GCAGCC	0.465 ± 0.1	1.99 ± 0.044	1.78 ± 0.023	0.532 ± 0.069
ACAUAA	0.531 ± 0.011	1.899 ± 0.0086	1.79 ± 0.021	0.532 ± 0.029
ACAUAG	0.305 ± 0.026	1.84 ± 0.072	1.52 ± 0.024	0.522 ± 0.046
ACAGAU	0.263 ± 0.00091	1.89 ± 0.033	1.64 ± 0.049	0.461 ± 0.069
ACAGAG	0.0524 ± 0.0076	1.79 ± 0.044	1.34 ± 0.041	0.353 ± 0.058
GCCGAU	0.193 ± 0.041	1.96 ± 0.027	1.76 ± 0.045	-0.0573 ± 0.24
GCCGAG	0.182 ± 0.0042	1.856 ± 0.013	1.39 ± 0.019	0.5906 ± 0.0027
GCCGAA	0.359 ± 0.087	1.96 ± 0.071	1.756 ± 0.0038	0.445 ± 0.055
UCCACG	-0.24 ± 0.012	1.94 ± 0.14	1.71 ± 0.036	0.0232 ± 0.017
CCACUG	0.339 ± 0.054	1.917 ± 0.012	1.8 ± 0.1	0.526 ± 0.076

Variant	FACS-Seq fitted mean (log10) (hypoxanthine [1])	normalized RNA/DNA level with ligand (log10) (hypoxanthine [2])	normalized RNA/DNA level without ligand (log10) (hypoxanthine [3])	FACS-Seq fitted mean (log10) (hypoxanthine [4])
GCCGUU	-0.297 ± 0.0052	1.978 ± 0.019	1.92 ± 0.051	0.037 ± 0.093
UCAUAG	0.588 ± 0.1	1.89 ± 0.033	1.69 ± 0.022	0.567 ± 0.11
UCAUAA	0.7537 ± 0.0032	1.93 ± 0.029	1.75 ± 0.025	0.622 ± 0.0065
UCAUAC	0.306 ± 0.022	1.98 ± 0.041	1.89 ± 0.056	0.474 ± 0.0069
ACCCGG	0.195 ± 0.055	1.89 ± 0.034	1.48 ± 0.019	0.714 ± 0.058
GCACGG	-0.136 ± 0.023	1.86 ± 0.026	1.444 ± 0.009	0.376 ± 0.087
ACAGUU	-0.0389 ± 0.048	1.914 ± 0.0073	1.73 ± 0.021	0.0577 ± 0.038
ACAGUC	0.656 ± 0.012	1.924 ± 0.0022	1.951 ± 0.0032	0.657 ± 0.04
UCCGAG	0.3183 ± 0.002	1.82 ± 0.054	1.38 ± 0.049	0.517 ± 0.0072
UCCCUG	0.429 ± 0.01	1.87 ± 0.076	1.41 ± 0.0038	0.587 ± 0.0069
CCCAAG	0.293 ± 0.059	1.91 ± 0.033	1.6 ± 0.079	0.439 ± 0.018
CCCAAA	0.477 ± 0.017	1.922 ± 0.019	1.84 ± 0.036	0.617 ± 0.11
GCAGAU	-0.106 ± 0.1	1.92 ± 0.077	1.76 ± 0.031	-0.1997 ± 0.0017
GCAGAA	0.408 ± 0.02	1.88 ± 0.057	1.7 ± 0.031	0.472 ± 0.013
GCAGAG	0.09517 ± 0.00035	1.78 ± 0.031	1.35 ± 0.051	0.558 ± 0.037
UCCGGG	-0.0285 ± 0.023	1.98 ± 0.047	1.93 ± 0.031	0.2736 ± 0.00093
UCCGGA	0.226 ± 0.02	1.96 ± 0.031	1.75 ± 0.021	0.384 ± 0.0052
GCCCUU	0.019 ± 0.061	1.95 ± 0.065	1.92 ± 0.058	0.231 ± 0.0079
GCCCUG	-0.113 ± 0.029	1.873 ± 0.0091	1.49 ± 0.049	0.497 ± 0.092
GCAUAU	0.326 ± 0.025	1.93 ± 0.031	1.736 ± 0.0026	0.329 ± 0.014
GCAUAA	0.705 ± 0.011	1.92 ± 0.03	1.801 ± 0.015	0.6261 ± 0.0017
CCCUCU	0.556 ± 0.081	1.98 ± 0.036	1.994 ± 0.015	0.481 ± 0.086
UCCCCA	0.858 ± 0.055	1.94 ± 0.08	1.82 ± 0.036	0.843 ± 0.088
UCCGCG	0.209 ± 0.032	1.894 ± 0.009	1.512 ± 0.011	0.621 ± 0.055

Variant	FACS-Seq fitted mean (log10) (hypoxanthine [1])	normalized RNA/DNA level with ligand (log10) (hypoxanthine [2])	normalized RNA/DNA level without ligand (log10) (hypoxanthine [3])	FACS-Seq fitted mean (log10) (hypoxanthine [4])
GCGAAA	0.172 ± 0.045	1.878 ± 0.0072	1.49 ± 0.019	0.404 ± 0.021
GCGAAC	0.0198 ± 0.0047	1.711 ± 0.0065	1.13 ± 0.044	0.61 ± 0.033
UCAGUU	-0.0872 ± 0.018	1.96 ± 0.046	1.87 ± 0.04	0.0688 ± 0.016
UCAGUA	0.09 ± 0.0096	1.92 ± 0.069	1.797 ± 0.013	0.386 ± 0.036
GCCUGA	0.389 ± 0.04	1.99 ± 0.022	1.81 ± 0.038	0.6019 ± 0.0038
GCACAA	0.663 ± 0.02	1.86 ± 0.046	1.75 ± 0.019	0.678 ± 0.026
GCACAG	0.227 ± 0.034	1.863 ± 0.00078	1.45 ± 0.021	0.0639 ± 0.076
GCCGCG	0.226 ± 0.012	1.94 ± 0.045	1.521 ± 0.0049	0.576 ± 0.024
GCCGCA	0.533 ± 0.054	1.96 ± 0.067	1.845 ± 0.0021	0.587 ± 0.027
ACCUGA	0.156 ± 0.046	1.96 ± 0.021	1.79 ± 0.049	0.323 ± 0.057
ACCUGG	0.3055 ± 0.0017	1.914 ± 0.011	1.55 ± 0.021	0.817 ± 0.071
UCCAAG	0.264 ± 0.033	1.897 ± 0.015	1.54 ± 0.036	0.457 ± 0.044
UCCAAA	0.00132 ± 0.058	1.937 ± 0.0063	1.804 ± 0.0049	0.0172 ± 0.041
ACCGCC	0.708 ± 0.051	1.938 ± 0.0023	1.879 ± 0.0089	0.737 ± 0.025
ACCGCG	0.331 ± 0.028	1.826 ± 0.015	1.5 ± 0.097	0.608 ± 0.026
CCCGCA	-0.714 ± 0.04	1.94 ± 0.028	1.91 ± 0.022	-0.0625 ± 0.038
UCCAGU	0.305 ± 0.066	1.96 ± 0.066	1.771 ± 0.013	0.502 ± 0.0098
CCAGAA	0.561 ± 0.0022	1.94 ± 0.053	1.79 ± 0.053	0.631 ± 0.011
CCAGAG	0.628 ± 0.021	1.95 ± 0.038	1.51 ± 0.066	0.741 ± 0.022
GCCGGU	0.478 ± 0.08	1.957 ± 0.01	1.982 ± 0.01	0.744 ± 0.043
CCAGCC	-0.754 ± 0.048	2 ± 0.026	1.916 ± 0.013	-0.409 ± 0.044
CCCUAA	0.693 ± 0.022	1.94 ± 0.022	1.907 ± 0.011	0.837 ± 0.06
CCAUGA	0.311 ± 0.11	1.986 ± 0.016	1.788 ± 0.016	0.414 ± 0.064
CCAUGG	0.39 ± 0.0048	1.85 ± 0.07	1.47 ± 0.018	0.611 ± 0.053
